Source: PMC6754399

Biological target: Wild-type CFTR (cystic fibrosis transmembrane conductance regulator) N-terminally labelled with GFP or RFP (UniProt P13569)
Assay: FRET or BRET; acceptor-photobleaching FRET between GFP-CFTR (donor) and RFP-CFTR (acceptor) in fixed HEK293T cells, measured intracellularly, basal conditions (air exposure)

- FRET efficiency (%E): 0%
Substance: Wild-type CFTR (cystic fibrosis transmembrane conductance regulator) N-terminally labelled with GFP or RFP (from UniProt P13569 1-1480) (natural protein)
